Measurements reported in patent US20250376519A1 (JIANGSU HENGRUI PHARMACEUTICALS, published 2025).

Columns and labels:
DLL1 (ACRO, DL1-H52H8) = target: T1, DLL1 (ACRO, DL1-H52H8) (human, UniProt O00548 18-540); assay: ELISA, DLL1 coated at 1 µg/mL, detection with anti-human IgG (H+L)-HRP, OD450
T1 construct: Bought; also called human DLL1
T1 sequence: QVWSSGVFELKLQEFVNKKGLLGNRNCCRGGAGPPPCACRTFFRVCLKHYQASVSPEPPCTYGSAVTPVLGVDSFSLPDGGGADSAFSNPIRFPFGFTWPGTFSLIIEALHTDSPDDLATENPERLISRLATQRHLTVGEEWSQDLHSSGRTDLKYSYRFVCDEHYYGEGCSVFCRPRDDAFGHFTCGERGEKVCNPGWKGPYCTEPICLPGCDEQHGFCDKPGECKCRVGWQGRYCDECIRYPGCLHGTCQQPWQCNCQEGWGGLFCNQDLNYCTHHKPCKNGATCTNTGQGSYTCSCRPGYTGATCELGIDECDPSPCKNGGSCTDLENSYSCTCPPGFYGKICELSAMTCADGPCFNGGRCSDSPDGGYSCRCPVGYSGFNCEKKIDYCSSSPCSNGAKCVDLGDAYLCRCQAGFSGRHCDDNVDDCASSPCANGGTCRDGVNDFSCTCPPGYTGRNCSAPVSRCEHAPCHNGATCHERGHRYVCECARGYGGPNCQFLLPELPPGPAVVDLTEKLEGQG
Experimental: DLL1 (ACRO, DL1-H52H8, 1 μg/mL) and DLL4 (ACRO, DL4-H5227, 1 μg/mL) were plated at 100 μL/well, and the plates were incubated overnight at 4° C. The plates were washed 3 times with 250 μL of PBST solution (PBS containing 0.1% Tween 20) per well. The plates were blocked with 250 μL of 5% milk per well at 37° C. for 2 h. The plates were washed 3 times with 250 μL of PBST solution per well. Test antibodies (maximum concentration 100 nM, serially diluted 4-fold) were added, and the plates were incubated at 37° C. for 1 h. The plates were washed 6 times with 250 μL of PBST solution per well. […] The plates were washed 6 times with 250 μL of PBST solution per well. TMB (KPL, 5120-0077) substrate solution was added at 100 μL/well, and color development was performed at room temperature for 5-10 min. 1 M H₂SO₄ was added at 100 μL/well to stop the color development, and microplate reader (Molecular Devices, VERSA max) readings at 450 nm were taken.

[1] = target: T2, cynomolgus monkey DLL3 (KACTUS, DLL-RM103) (cynomolgus monkey, UniProt Q9NYJ7 27-492 (human entry), limits assumed); assay: SPR Biacore 8K, Ab captured on Protein A
T2 construct: Bought
T2 chain: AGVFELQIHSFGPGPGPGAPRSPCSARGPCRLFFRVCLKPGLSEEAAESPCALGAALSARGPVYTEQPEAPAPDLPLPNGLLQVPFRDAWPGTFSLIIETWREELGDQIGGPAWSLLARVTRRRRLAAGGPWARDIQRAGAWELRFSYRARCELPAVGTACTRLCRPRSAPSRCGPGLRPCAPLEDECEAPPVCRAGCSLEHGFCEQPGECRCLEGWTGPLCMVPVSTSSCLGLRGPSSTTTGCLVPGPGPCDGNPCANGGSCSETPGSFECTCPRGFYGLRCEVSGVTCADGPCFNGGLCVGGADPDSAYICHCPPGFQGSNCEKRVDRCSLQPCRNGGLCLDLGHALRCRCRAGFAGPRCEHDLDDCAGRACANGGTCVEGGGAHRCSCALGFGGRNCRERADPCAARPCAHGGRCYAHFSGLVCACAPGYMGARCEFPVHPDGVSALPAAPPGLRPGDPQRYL
Summary of the method: (§1)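 Antibodies captured on a Protein A chip for 18 s; DLL3 or CD3D&3E antigen flowed 180 s, then 600 s dissociation, with real-time detection. Regeneration used 10 mM glycine-HCl pH 1.5 between cycles. Kinetics were obtained by 1:1 model fitting.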

[2] = target: T3, monkey CD3D&3E (ACRO, CDD-C52W4) (cynomolgus monkey, UniProt Q95LI8 22-105; Q95LI5 22-117); assay: SPR Biacore 8K, Ab captured on Protein A
T3 construct: bought CD3 delta/epsilon protein; also called cynomolgus monkey CD3
Summary of the method: as §1

[3] = target: T4, mouse DLL3 (KACTUS, DLL-MM103) (mouse, UniProt O88516 33-490, limits assumed); assay: SPR Biacore 8K, Ab captured on Protein A
T4 construct: Bought
T4 sequence: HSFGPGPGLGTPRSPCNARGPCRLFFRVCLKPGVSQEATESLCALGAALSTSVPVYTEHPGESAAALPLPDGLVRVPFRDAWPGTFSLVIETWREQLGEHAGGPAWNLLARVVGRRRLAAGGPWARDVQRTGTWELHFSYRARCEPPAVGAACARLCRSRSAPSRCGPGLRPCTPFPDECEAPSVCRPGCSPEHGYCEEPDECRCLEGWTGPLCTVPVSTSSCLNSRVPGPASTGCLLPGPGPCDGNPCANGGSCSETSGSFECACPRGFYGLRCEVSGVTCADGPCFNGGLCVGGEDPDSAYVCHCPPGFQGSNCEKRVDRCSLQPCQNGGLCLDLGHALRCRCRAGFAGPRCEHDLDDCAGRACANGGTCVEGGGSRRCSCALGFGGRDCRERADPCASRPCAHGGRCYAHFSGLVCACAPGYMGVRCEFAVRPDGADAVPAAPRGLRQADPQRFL
Summary of the method: as §1

T3 sequence (Q95LI8 22-105, chain 1 of 2): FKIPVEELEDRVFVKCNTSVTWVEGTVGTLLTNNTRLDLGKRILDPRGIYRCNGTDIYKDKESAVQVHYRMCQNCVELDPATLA
T3 sequence (Q95LI5 22-117, chain 2 of 2): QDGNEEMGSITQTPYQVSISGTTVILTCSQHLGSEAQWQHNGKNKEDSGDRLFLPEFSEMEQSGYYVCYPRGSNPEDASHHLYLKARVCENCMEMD

B1: hu110-S107E-hot Ig (bispecific antibody)
light 1: NIVMTQSPKSLAVSLGERATINCKASENVGIFVSWYQQKPGQSPKLLIYGASNRYTGVPDRFSGSGSATDFTLTISSLQAEDVADYYCGQSHSYPLTFGQGTKLEIKGGGGSSGAPRFLTRPKASVVSVGKDATLSCQIVGNPFPQVSWEKDKQPVTAGVRFRLAQDGDLYRLKILDLQLSDSGQYVCRARNAHGEAFACLGLQVDAEA
heavy 1: EVQLVQSGAEVKKPGASVKVSCKTSGYTFTDYYMNWVRQAPGQSLEWMGIINPYQGGTSYTQKFKGRVTITVDKSASTAYMELSSLRSEDTAVYYCARHFYDSSYLTYSTMDYWGQGTTVTVSSGGGGSGIPPKIECLPIDISIDEGKVLTVASAFTGEPTPEVTWSTGGRKIHSQEQGRFHIENTDDSTTLTIKDVQKQDGGLYTLTLRNEFGSDSATVNIHIRSIDKTHTCPPCPAPEAAGGPSVFLFPPKPKDTLMISRTPEVTCVVVDVSHEDPEVKFNWYVDGVEVHNAKTKPREEQYNSTYRVVSVLTVLHQDWLNGKEYKCKVSNKALPAPIEKTISKAKGQPREPQVCTLPPSREEMTKNQVSLSCAVKGFYPSDIAVEWESNGQPENNYKTTPPVLDSDGSFFLVSKLTVDKSRWQQGNVFSCSVMHEALHNHYTQKSLSLSPGK
heavy 2: not shown
light 2: not shown
notes: Format 1 (Hot-Ig, Titin/Obscurin-replaced DLL3 Fab), DLL3 x CD3
DLL1 (ACRO, DL1-H52H8)
  binding result: no binding
[1]
  Kd: 0.523 nM
  koff: 6.43e-05 s⁻¹
  kon: 123000 M⁻¹ s⁻¹
[2]
  Kd: 39.6 nM
  koff: 0.007 s⁻¹
  kon: 177000 M⁻¹ s⁻¹
[3]
  binding result: no binding

B2: hu110-I2C-hot Ig (bispecific antibody)
light 1: NIVMTQSPKSLAVSLGERATINCKASENVGIFVSWYQQKPGQSPKLLIYGASNRYTGVPDRFSGSGSATDFTLTISSLQAEDVADYYCGQSHSYPLTFGQGTKLEIKGGGGSSGAPRFLTRPKASVVSVGKDATLSCQIVGNPFPQVSWEKDKQPVTAGVRFRLAQDGDLYRLKILDLQLSDSGQYVCRARNAHGEAFACLGLQVDAEA
heavy 1: EVQLVQSGAEVKKPGASVKVSCKTSGYTFTDYYMNWVRQAPGQSLEWMGIINPYQGGTSYTQKFKGRVTITVDKSASTAYMELSSLRSEDTAVYYCARHFYDSSYLTYSTMDYWGQGTTVTVSSGGGGSGIPPKIECLPIDISIDEGKVLTVASAFTGEPTPEVTWSTGGRKIHSQEQGRFHIENTDDSTTLTIKDVQKQDGGLYTLTLRNEFGSDSATVNIHIRSIDKTHTCPPCPAPEAAGGPSVFLFPPKPKDTLMISRTPEVTCVVVDVSHEDPEVKFNWYVDGVEVHNAKTKPREEQYNSTYRVVSVLTVLHQDWLNGKEYKCKVSNKALPAPIEKTISKAKGQPREPQVCTLPPSREEMTKNQVSLSCAVKGFYPSDIAVEWESNGQPENNYKTTPPVLDSDGSFFLVSKLTVDKSRWQQGNVFSCSVMHEALHNHYTQKSLSLSPGK
heavy 2: not shown
light 2: not shown
notes: as for B1
DLL1 (ACRO, DL1-H52H8)
  binding result: no binding
[1]
  Kd: 0.616 nM
[2]
  Kd: 1.5 nM
[3]
  binding result: no binding

B3: hu110-I2C-Y body (bispecific antibody)
light: NIVMTQSPKSLAVSLGERATINCKASENVGIFVSWYQQKPGQSPKLLIYGASNRYTGVPDRFSGSGSATDFTLTISSLQAEDVADYYCGQSHSYPLTFGQGTKLEIKRTVAAPSVFIFPPSDEQLKSGTASVVCLLNNFYPREAKVQWKVDNALQSGNSQESVTEQDSKDSTYSLSSTLTLSKADYEKHKVYACEVTHQGLSSPVTKSFNRGEC
heavy: EVQLVQSGAEVKKPGASVKVSCKTSGYTFTDYYMNWVRQAPGQSLEWMGIINPYQGGTSYTQKFKGRVTITVDKSASTAYMELSSLRSEDTAVYYCARHFYDSSYLTYSTMDYWGQGTTVTVSSASTKGPSVFPLAPSSKSTSGGTAALGCLVKDYFPEPVTVSWNSGALTSGVHTFPAVLQSSGLYSLSSVVTVPSSSLGTQTYICNVNHKPSNTKVDKKVEPKSCDKTHTCPPCPAPEAAGGPSVFLFPPKPKDTLMISRTPEVTCVVVDVSHEDPEVKFNWYVDGVEVHNAKTKPREEQYNSTYRVVSVLTVLHQDWLNGKEYKCKVSNKALPAPIEKTISKAKGQPREPQVCTLPPSREEMTKNQVSLSCAVKGFYPSDIAVEWESNGQPENNYKTTPPVLDSDGSFFLVSKLTVDKSRWQQGNVFSCSVMHEALHNHYTQKSLSLSPGK
chain: not shown
notes: Format 2 (Y body: DLL3 Fab-Fc hole + CD3 scFv-Fc knob)
DLL1 (ACRO, DL1-H52H8)
  binding result: no binding
[1]
  Kd: 0.762 nM
[2]
  Kd: 2.32 nM
[3]
  binding result: no binding
